Source: US20190040127A1 (University of California, published 2019)
Values belong to the binder of their own block, whether it stands above or below them.

Columns and labels:
[1] = target: T1, Epithelial Membrane Protein 2 (EMP2) (human, UniProt P54851 1-167); test: flow cytometry on SUM149 cells, nonlinear regression (FIG. 4)
T1 construct: Endogenous EMP2 on SUM149 or MDA-MB-468 breast cancer cells
T1 sequence: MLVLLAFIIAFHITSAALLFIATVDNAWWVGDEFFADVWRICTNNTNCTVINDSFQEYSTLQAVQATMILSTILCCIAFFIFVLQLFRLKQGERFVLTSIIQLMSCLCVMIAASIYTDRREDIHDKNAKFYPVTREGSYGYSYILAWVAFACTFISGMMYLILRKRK
Method: (§1) A comparison of anti-EMP2 Variant 1 and PG-101 binding affinity for EMP2 was carried out. […] PG-101 and Variant 1 binding to EMP2 was determined using SUM149 and flow cytometry. Variant 1 retains binding to EMP2 with improved affinity. Flow cytometry was used to determine the ability of both antibodies to bind to EMP2 on SUM149 cells.

[2] = target: T1, Epithelial Membrane Protein 2 (EMP2); test: flow cytometry on SUM149 cells (FIG. 4)
Method: as §1

[3] = target: T1, Epithelial Membrane Protein 2 (EMP2); test: flow cytometry on MDA-MB-468 cells (FIG. 2)

Kd [1]: 2.6 µg/mL
B1: PG-101 Parental (antibody, human IgG1, kappa, V domains shown)
VH: QVQLVQSGGGVVQPGRSLRLSCAASGFTFSSYAMHWVRQAPGKGLEWVAVISYDGSNKYYADSVKGRFTISRDNSKNTLYLQMNSLRAEDTAVYYCARDRRGRKSAGIDYWGQGTLVTVSS
VL: DIQMTQSPSSLSASVGDRVTITCQASQDISNYLNWYQQKPGKAPKLLIYAASSLQSGVPSRFSGSGSGTDFTLTISSLQPEDFATYYCLQDYNGWTFGQGTKVDIKR
notes: Full IgG1/kappa made in HEK293 cells; also called parental antibody

fold increase in binding against the parental antibody PG-101 [2]: > 2 fold
B2: PG-101 Variant 1 (antibody, human IgG1, kappa, V domains shown)
VH: QVQLVQSGGGVVQPGRSLRLSCAASGFTFSSYAMHWVRQAPGKGLEWVAVISYDGSNKYYADSVKGRFTISRDNSKNTLYLQMNSLRAEDTAVYYCARDRRGRKSAGIDYWGQGTLVTVSS
VL: DIQMTQSPSSLSASVGDRVTITCQASQDISNYLNWYQQKPGKAPKLLIYAASSLQSGVPSRFSGSGSGTDFTLTISSLQPEDFATYYCLQDYSGWTFGQGTKVDIKR
notes: Full IgG1/kappa made in HEK293 cells; also called anti-EMP2 Variant 1; PG-201

binding result [3]: binds
B3: PG-101 Variant 2 (antibody, human IgG1, kappa, V domains shown)
VH: QVQLVQSGGGVVQPGRSLRLSCAASGFTFSSYAMHWVRQAPGKGLEWVAVISYDGSNKYYADSVKGRFTISRDNSKNTLYLQMNSLRAEDTAVYYCARDRRGRKSAGIDYWGQGTLVTVSS
VL: DIQMTQSPSSLSASVGDRVTITCQASQDISNYLNWYQQKPGKAPKLLIYAASSLQSGVPSRFSGSGSGTDFTLTISSLQPEDFATYYCLQDYNLWTFGQGTKVDIKR
notes: Full IgG1/kappa made in HEK293 cells
